{"source": "patent US20130274185A1", "about": "“Pharmaceutical for Pseudo-Exercise Therapy” (THE UNIVERSITY OF TOKYO, priority 2010, published 2013)", "molecules": {"B1": {"name": "adiponectin (protein, UniProt Q60994 1-247, looked up)", "chain": "MLLLQALLFLLILPSHAEDDVTTTEELAPALVPPPKGTCAGWMAGIPGHPGHNGTPGRDGRDGTPGEKGEKGDAGLLGPKGETGDVGMTGAEGPRGFPGTPGRKGEPGEAAYVYRSAFSVGLETRVTVPNVPIRFTKIFYNQQNHYDGSTGKFYCNIPGLYYFSYHITVYMKDVKVSLFKKDKAVLFTYDQYQEKNVDQASGSVLLHLEVGDQVWLQVYGDGDHNGLYADNVNDSTFTGFLLYHDTN", "modifications": "full-length", "notes": "adipokine, internal ligand of adiponectin receptor 1; recombinant murine full-length adiponectin"}}, "key": {"soleus muscle": {"tested_on": "soleus muscle", "test": "Calcium imaging in skeletal muscle (soleus)", "assay_type": "cell-based, mice", "conditions": "adiponectin 30 μg/ml", "method": "From 8-10 weeks-old mice, soleus muscles were dissected. Preparations were treated with 5 μM fura-2/AM in the presence of 0.1% Chremophore EL (Sigma) for 15 min. Fluorescence images were acquired using an inverted fluorescence microscopy (IX71, Olympus) equipped with a cooled charge-coupled device (CCD) camera (iXon, Andor) and a dry objective lens (10×, NA=0.3, Olympus) through a filter set consisting of a 327-353 nm and 369-391 nm excitation filter, a 409 nm dichroic mirror, and a 515-560 nm fluorescent filter. Ligands were supplied using the superfusing Ringer's solution (150 mM NaCl, 4 mM KCl, 2.0 mM CaCl2, 1.0 mM MgCl2, 30 mM D-glucose, 5 mM HEPES (pH 7.4))."}, "C2C12 myocytes [1]": {"tested_on": "C2C12 myocytes", "test": "Patch clamp test, whole-cell current in C2C12 myocytes", "assay_type": "cell-based, mouse", "conditions": "adiponectin 30 μg/ml 30 sec, holding potential -60 mV", "method": "Whole-cell currents were amplified with a patch-clamp amplifier (CEZ-2400; Nihon Kohden) and were digitized with a PowerLab digitizer (AD Instruments). Ringer's solution was used for the extracellular solution. The electrode solution contained 140 mM KCl, 10 mM HEPES, 5 mM EGTA-2K, and 10 mM D-glucose (pH 7.4). The data were low-pass filtered at 2 kHz and were sampled at 20 kHz. Ligands dissolved in Ringer's solution were applied at least twice with a self-made pressure-ejection system and via a two-barreled glass capillary."}, "[2]": {"test": "Plasma adiponectin level after intravenous adiponectin injection", "assay_type": "in vivo, mice", "conditions": "30 μg recombinant murine adiponectin per 10 g body weight, intravenously", "from_the_text": "(§1) Mouse full-length adiponectin was generated as described in the following documents (Nature Med. 8, 1288-1295 (2002); Nature Med. 7, 941-946 (2001); Nature 423, 762-769 (2003))."}, "PGC-1α (Ppargc1a)": {"tested_on": "PGC-1α (Ppargc1a)", "test": "PGC-1α (Ppargc1a) expression in C2C12 myocytes", "assay_type": "cell-based, mouse", "conditions": "C2C12 myocytes, adiponectin 10 μg/ml 1.5 hours", "method": "(§2) Real-time PCR was carried out according to the method described in the following documents (Nature Med. 13, 332-339 2007); Nature 423, 762-769 (2003); J. Biol. Chem. 281, 8748-8755 (2006)). Total RNA was prepared from cells or tissues by using Trizol (Invitrogen) according to the manufacturer's instructions. Quantification of mRNA was conducted using a real-time PCR method (Nature 423, 762-769 (2003)) with slight modifications. The procedures used for immunoblotting are described in the following documents (Nature Med. 7, 941-946 (2001); J. Biol. Chem. 281, 26602-26614 (2006); J. Biol. Chem. 281, 8748-8755 (2006)). The livers or muscles were freeze-clamped in liquid nitrogen in situ (Nature Med. 7, 941-946 (2001); J. Biol. Chem. 281, 26602-26614 (2006); J. Biol. Chem. 281, 8748-8755 (2006)).\n(§3) The mouse C2C12 myoblasts were grown in 90% Dulbecco's modified high glucose Eagle's medium containing 10% (v/v) fetal bovine serum. When the cells reached 80% confluent, the myoblasts were induced to differentiate into myocytes by replacing the medium with a low serum differentiation medium (98% Dulbecco's modified high glucose Eagle's medium, 2.5% (v/v) horse serum). The medium was changed daily. The C2C12 cells were transfected by using Pofectamine 2000 (Invitrogen) and following the manufacturer's instructions."}, "C2C12 myocytes [3]": {"tested_on": "C2C12 myocytes", "test": "Mitochondrial content assay in C2C12 myocytes", "assay_type": "cell-based, mouse", "method": "as §3\nMitochondrial content assays were carried out as described in the following document (Cell Metab. 4, 75-87 (2006)), with slight modifications. Quantification of the mitochondrial content was conducted by using mtDNA and MitoTracker Green probe (Molecular Probes) according to the method as described in the following document (Obes. Res. 13, 574-581 (2005)). MitoTracker Green probe preferentially accumulates in mitochondria regardless of the mitochondrial membrane potential and provides an accurate assessment of mitochondrial mass. Cells were washed with PBS and after addition of 100 nM MitoTracker Green FM (Molecular Probes), incubated at 37° C. for 30 min. Cells were harvested by using trypsin/EDTA and resuspended in PBS. Fluorescence intensity was detected with excitation and emission wavelengths of 490 and 516 nm, respectively, and the values thus measured were corrected for total protein (mg/ml)."}, "AMPK": {"tested_on": "AMPK", "test": "AMPK phosphorylation in vivo (skeletal muscle and liver)", "set-up": "species or system mice", "conditions": "30 μg per 10 g body weight, 10 min", "method": "as §1, §2"}, "HDAC5": {"tested_on": "HDAC5", "test": "HDAC5 phosphorylation in C2C12 myocytes", "assay_type": "cell-based, mouse", "conditions": "adiponectin 30 μg/ml, 0-20 min", "method": "as §3"}, "[4]": {"conditions": "C2C12 myocytes, 30 μg/ml adiponectin"}}}
{"molecule": "B1", "values": [{"measurement": "intracellular calcium ion concentration in soleus muscle (fura-2)", "setting": "soleus muscle; control mice", "value": "increased the intracellular calcium ion concentration"}, {"measurement": "calcium responses of soleus muscle", "setting": "soleus muscle; muscle-R1KO mice", "value": "almost completely disappeared"}, {"measurement": "whole-cell inward current response", "setting": "C2C12 myocytes [1]", "value": "Inward current responses to adiponectin were observed"}, {"measurement": "plasma adiponectin levels", "setting": "[2]", "value": "approximately 30 μg/ml"}, {"measurement": "PGC-1α expression", "setting": "PGC-1α (Ppargc1a)", "value": "increase in PGC-1α expression"}, {"measurement": "mitochondrial biogenesis", "setting": "C2C12 myocytes [3]; C2C12 myocytes expressing PGC-1α-R13 mutant", "value": "failed to further induce mitochondrial biogenesis"}, {"measurement": "amount of mitochondria as assessed by MitoTracker green", "setting": "C2C12 myocytes [3]; [4]", "value": "increased"}, {"measurement": "mitochondrial DNA content", "setting": "C2C12 myocytes [3]; [4]", "value": "increased a mitochondrial DNA content"}, {"measurement": "phosphorylation of AMPK in liver", "setting": "AMPK; both genotypes", "value": "increased the phosphorylation of AMPK in the liver of both genotypes"}, {"measurement": "phosphorylation of AMPK in skeletal muscle", "setting": "AMPK; control littermates", "value": "increased the phosphorylation of AMPK in the muscle of control littermates"}, {"measurement": "HDAC5 phosphorylation", "setting": "HDAC5", "value": "increased HDAC5 phosphorylation"}]}
